Measurements as given in US20250249115A1, “COMBINATION THERAPY FOR TREATING TUMOR ANTIGEN EXPRESSING CANCERS” (Gilead Sciences, Inc., priority 2022, published 2025).

Tests used:
[1] = biological target: T1, Mouse Trop-2 (Mus musculus, UniProt Q8BGV3); assay: Binding to mouse Trop-2 measured by surface plasmon resonance (SPR)
T1 sequence (Q8BGV3 25-317): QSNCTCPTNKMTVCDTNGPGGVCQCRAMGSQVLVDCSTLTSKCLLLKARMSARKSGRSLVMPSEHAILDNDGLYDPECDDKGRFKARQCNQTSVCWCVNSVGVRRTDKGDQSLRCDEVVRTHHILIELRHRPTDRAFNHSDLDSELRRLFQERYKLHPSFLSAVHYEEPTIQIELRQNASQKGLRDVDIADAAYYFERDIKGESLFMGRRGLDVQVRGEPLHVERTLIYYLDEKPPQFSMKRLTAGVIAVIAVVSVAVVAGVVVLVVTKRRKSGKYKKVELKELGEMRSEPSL
Text: (§1) To engineer an anti-mouse Trop-2 ADC binding to mouse Trop-2 with proprieties similar to SG, we selected a commercially available anti-mouse Trop-2 rabbit antibody (Sino Biological, #50922-R064) and murinized it to obtain an anti-mouse Trop-2 IgG2a (Rab64/mG2a/mKap). Rab64 mAb was then coupled to CL2A linker/SN-38 payload at a high DAR (˜8-9).

[2] = biological target: T2, Human Trop-2 (Homo sapiens, UniProt P09758); assay: Binding to human Trop-2 measured by surface plasmon resonance (SPR)
T2 sequence (P09758 27-323): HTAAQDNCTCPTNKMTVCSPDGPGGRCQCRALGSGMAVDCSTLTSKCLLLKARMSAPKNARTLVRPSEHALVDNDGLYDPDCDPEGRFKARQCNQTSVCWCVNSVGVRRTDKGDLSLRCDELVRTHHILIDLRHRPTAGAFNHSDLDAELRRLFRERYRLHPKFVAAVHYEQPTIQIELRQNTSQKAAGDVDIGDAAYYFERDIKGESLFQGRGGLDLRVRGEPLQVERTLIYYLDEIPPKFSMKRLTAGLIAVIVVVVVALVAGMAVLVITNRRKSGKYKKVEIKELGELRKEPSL
Text: as §1

[3] = biological target: Human Trop-2 (human) (UniProt P09758); assay: SPR

Molecule: hRS7-hIgG1k: humanized monoclonal antibody hRS7 IgG1κ, which binds to Trop-2
- KD [1]: No binding detected
- Kd [2]: 0.328 nM

B1: hRS7-hIgG1k (antibody, INN chains, looked up, V domains shown)
VH: QVQLQQSGSELKKPGASVKVSCKASGYTFTNYGMNWVKQAPGQGLKWMGWINTYTGEPTYTDDFKGRFAFSLDTSVSTAYLQISSLKADDTAVYFCARGGFGSSYWYFDVWGQGSLVTVSS
VL: DIQLTQSPSSLSASVGDRVSITCKASQDVSIAVAWYQQKPGKAPKLLIYSASYRYTGVPDRFSGSGSGTDFTLTISSLQPEDFAVYYCQQHYITPLTFGAGTKVEIKR
- Kd [3]: 0.328 nM
- koff [3]: 0.000144 s⁻¹
- kon [3]: 440000 M⁻¹ s⁻¹

B2: Sacituzumab Govitecan (SG, Trodelvy) (antibody, INN chains, looked up, IgG1, V domains shown)
VH: B1 VH
VL: B1 VL
modifications: CL2A-SN-38, DAR 7.5
- Kd [3]: 0.361 nM
- koff [3]: 0.000153 s⁻¹
- kon [3]: 423000 M⁻¹ s⁻¹
